Data: US9994830B2, “Methods for modulating cyclic nucleotide-mediated signaling in cardiac myocytes and compositions” (The United States of America as Represented by the …, priority 2014, dated 2018)

Key:
[1] = test system: neonatal rat ventricular myocytes; assay: Hypertrophy of neonatal rat ventricular myocytes (PDE3 inhibitor treatment or transfection with dominant-negative constructs, with or without norepinephrine); type: cell-based
Text: FIG. 5. Anti-hypertrophic actions of PDE3A1-selective targeting in neonatal rat ventricular myocytes.
In contrast, expression of the PDE3A1 dominant negative has no pro-hypertrophic effect, and actually blocks the hypertrophic responses to norepinephrine.
In neonatal rat ventricular myocytes, conventional PDE3 inhibition promotes cellular hypertrophy, which may be associated with adverse consequences in heart failure. We questioned what effect PDE3A1-selective inhibition would have. […] The F1004A substitution is a change in the amino acid sequence of PDE3A1 at amino acid position 1004 from a phenylalanine to an alanine. We transfected neonatal rat ventricular myocytes with this dominant-negative construct to competitively block the protein-protein interactions that localize PDE3A1 to specific intracellular microdomains. […] To our knowledge, this is the first direct evidence that conventional PDE3 inhibition and isoform-selective targeting have different effects in cardiac myocytes, and that some of the adverse consequences of nonselective PDE3 inhibition may be averted by isoform-selective targeting involving protein-protein interactions.

rSERCA2 = biological target: T1, rSERCA2 (Homo sapiens, UniProt P16615); assay: Co-immunoprecipitation of Flag-tagged rhPDE3A variants and rSERCA2 after incubation with or without rPKAc; type: binding; conditions: serine-to-alanine mutants of rhPDE3A1, 50 units rPKAc, co-IP
T1 construct: purchased Abnova
Text: FIG. 11 a-d. rPKAc phosphorylates rhPDE3A and increases its interactions rSERCA2. A. Schemes representing PDE3A1 [NHR1: trans-membrane domain (obligatory membrane insertion domain); NHR2: membrane association domain; CCR: conserved C-terminal catalytic region; P1-4: predicted PKA phosphorylation sites; rhPDE3A and truncated mutants (PDE3A2, PDE3A-A510, PDE3A-RD), and rSERCA2 (1042 amino acids, 3-77 cation transporter N-terminal; 93-341, E1-E2 ATPase; 345-724, haloacid dehydrogenase like hydrolase; 819-991, cation transporter ATPase C-terminus). B. Putative PKA phosphorylation sites of PDE3A designated with asterisks. C-D. Purified rSERCA2 (150 ng) (Abnova) and 50 units of Flag-tagged rhPDE3A1 truncated mutants [rhPDE3A2, rhPDE3A-A510, and similarly expressed rhPDE3A-RD (aa 146-484)](FIG. 11D) or mutants lacking the PKA putative phosphorylation site mutants of rhPDE3A1 [Ser292/293A (M1), S312A (M2), S428A (M3), S438A (M4), S292A/293A/312A/438A (M5)](FIG. 11C) were incubated with or without 50 units of rPKAc at 30° C. for 30 min and 5 mM MgCl2 in phosphorylation buffer. Proteins were immunoprecipitated with anti-Flag antibodies and immunoblotted with anti-SERCA2 (upper panel), or anti-Flag (middle panel). Lower panel: input control (SERCA2). Shown are representative blots from three independent experiments. (RD: regulatory domain; AA: amino acid).
Flag-tagged rhPDE3A1 and its phosphorylation site mutants [rhPDE3A1-S292A/293A (M1), rhPDE3A1-S312A (M2), rhPDE3A1-S428A (M3), rhPDE3A1-S438A (M4), rhPDE3A1-S292A/293A/312A/438A (M5) open reading frame [accession #NP_000912] was synthesized by Genscript, Inc (Piscataway, N.J.), subcloned into pAcSG2 baculoviral expression vector. Flag-tagged rhPDE3A variants and phosphorylation site mutants were expressed in SF21 cells [(10-20)×106 SF21 cells/75-cm2 flask] as described (19,20). SF21 cells were harvested, sedimented (10 min, 1000×g, 4° C.), washed twice with ice-cold PBS, resuspended, homogenized (in a Dounce homogenizer) in buffer B and sonicated […]. A comparison of the translated sequences of human AKAP18γ (AC NP_057461 and AK300587; 348 aa residues) and rat AKAP18δ (3) (AC QJP77; 352 aa residues) indicate that eight of the first twelve aa residues of human AKAP18γ and rat AKAP18δ are identical, and that the proteins are homologous (˜74% aa identity). SF21 cell extracts, which contained his-tagged-rAKAP18δ, were prepared as described above. Flag-tagged rhPDE3A1 (usually 50 arbitrary (u) units) was incubated (30 min, 30° C.) with rAKAP18δ (200 μl, containing 50 ng of recombinant protein), with or without different concentrations of rPKAc (final volume, 300 μl) in buffer B containing 2 mM DTT and 200 μM ATP. Reactions were stopped by dilution of reaction mixtures to 1.0 ml with buffer B containing 1 mg/ml SF21 cell lysates, and cleared as described above (cf ‘Immunoprecipitation and immunoblotting’ subsection). His-tagged rAKAP18δ was immunoprecipitated with anti-his Mab Mag-beads (Genscript). Anti-his Mab Mag beads-bound immunoprecipitates were washed, collected, and anti-his Mab Mag-beads-bound proteins were eluted by boiling in Laemmli's SDS buffer (100 μl) and samples (15 μl) of immunoprecipitated proteins as well as of reaction mixtures (‘input proteins’) were immunoblotted with indicated antibodies as described above.

T1 sequence (P16615 whole entry): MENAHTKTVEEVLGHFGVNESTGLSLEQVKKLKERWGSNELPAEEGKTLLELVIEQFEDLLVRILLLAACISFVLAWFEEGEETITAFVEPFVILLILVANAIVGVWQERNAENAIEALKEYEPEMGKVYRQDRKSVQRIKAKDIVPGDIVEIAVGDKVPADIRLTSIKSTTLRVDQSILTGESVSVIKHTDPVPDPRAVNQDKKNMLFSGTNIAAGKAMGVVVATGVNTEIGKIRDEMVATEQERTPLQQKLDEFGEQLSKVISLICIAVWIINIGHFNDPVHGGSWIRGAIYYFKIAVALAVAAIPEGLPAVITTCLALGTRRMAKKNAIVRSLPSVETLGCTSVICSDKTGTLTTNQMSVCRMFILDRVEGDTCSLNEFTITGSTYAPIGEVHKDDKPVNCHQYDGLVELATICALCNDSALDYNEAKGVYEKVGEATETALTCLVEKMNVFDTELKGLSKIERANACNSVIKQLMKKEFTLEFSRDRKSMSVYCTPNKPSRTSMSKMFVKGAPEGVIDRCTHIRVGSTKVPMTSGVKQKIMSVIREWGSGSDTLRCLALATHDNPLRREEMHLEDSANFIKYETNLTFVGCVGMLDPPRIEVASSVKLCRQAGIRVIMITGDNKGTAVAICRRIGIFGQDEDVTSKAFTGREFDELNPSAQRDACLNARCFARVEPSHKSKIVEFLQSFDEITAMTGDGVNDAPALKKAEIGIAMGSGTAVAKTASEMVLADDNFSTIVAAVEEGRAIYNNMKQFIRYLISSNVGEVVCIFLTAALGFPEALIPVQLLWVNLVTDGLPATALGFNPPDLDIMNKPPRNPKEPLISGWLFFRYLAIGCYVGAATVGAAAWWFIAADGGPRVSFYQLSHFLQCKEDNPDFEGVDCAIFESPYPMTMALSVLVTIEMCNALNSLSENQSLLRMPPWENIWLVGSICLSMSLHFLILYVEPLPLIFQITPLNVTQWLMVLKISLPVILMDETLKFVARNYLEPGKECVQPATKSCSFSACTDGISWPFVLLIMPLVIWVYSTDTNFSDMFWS

| Molecule | hypertrophic response to norepinephrine ([1]; neonatal rat ventricular myocytes transfected with construct, norepinephrine) | cellular hypertrophy ([1]; neonatal rat ventricular myocytes, treatment or transfection alone) | PKA-stimulated (phosphorylation-dependent) interaction with SERCA2 (rSERCA2) |
| --- | --- | --- | --- |
| PDE3A1-F1004A: RFP-tagged PDE3A1 construct with F1004A substitution in the C-terminus yielding a catalytically inactive, dominant-negative protein (SEQ ID NO:2) (protein, listed as Homo sapiens, RFP tag; (1)..(1141) conceptual translation of the longest ORF of the PDE3A gene with a mutation at amino acid position 1004 in which phenylalanine is changed to alanine; presence of alanine at amino acid 1004 inactivates phosphodiesterase activity) MAVPGDAARVRDKPVHSGVSQAPTAGRDCHHRADPASPRDSGCRGCWGDLVLQPLRSSRKLSSALCAGSLSFLLALLVRLVRGEVGCDLEQCKEAAAAEEEEAAPGAEGGVFPGPRGGAPGGGARLSPWLQPSALLFSLLCAFFWMGLYLLRAGVRLPLAVALLAACCGGEALVQIGLGVGEDHLLSLPAAGVVLSCLAAATWLVLRLRLGVLMIALTSAVRTVSLISLERFKVAWRPYLAYLAGVLGILLARYVEQILPQSAEAAPREHLGSQLIAGTKEDIPVFKRRRRSSSVVSAEMSGCSSKSHRRTSLPCIPREQLMGHSEWDHKRGPRGSQSSGTSITVDIAVMGEAHGLITDLLADPSLPPNVCTSLRAVSNLLSTQLTFQAIHKPRVNPVTSLSENYTCSDSEESSEKDKLAIPKRLRRSLPPGLLRRVSSTWTTTTSATGLPTLEPAPVRRDRSTSIKLQEAPSSSPDSWNNPVMMTLTKSRSFTSSYAISAANHVKAKKQSRPGALAKISPLSSPCSSPLQGTPASSLVSKISAVQFPESADTTAKQSLGSHRALTYTQSAPDLSPQILTPPVICSSCGRPYSQGNPADEPLERSGVATRTPSRTDDTAQVTSDYETNNNSDSSDIVQNEDETECLREPLRKASACSTYAPETMMFLDKPILAPEPLVMDNLDSIMEQLNTWNFPIFDLVENIGRKCGRILSQVSYRLFEDMGLFEAFKIPIREFMNYFHALEIGYRDIPYHNRIHATDVLHAVWYLTTQPIPGLSTVINDHGSTSDSDSDSGFTHGHMGYVFSKTYNVTDDKYGCLSGNIPALELMALYVAAAMHDYDHPGRTNAFLVATSAPQAVLYNDRSVLENHHAAAAWNLFMSRPEYNFLINLDHVEFKHFRFLVIEAILATDLKKHFDFVAKFNGKVNDDVGIDWTNENDRLLVCQMCIKLADINGPAKCKELHLQWTDGIVNEFYEQGDEEASLGLPISPFMDRSAPQLANLQESAISHIVGPLCNSYDSAGLMPGKWVEDSDESGDTDDPEEEEEEAPAPNEEETCENNESPKKKTFKRRKIYCQITQHLLQNHKMWKKVIEEEQRLAGIENQSLDQTPQSHSSEQIQAIKEEEEEKGKPRGEEIPTQKPDQ | blocked the hypertrophic response to norepinephrine | did not induce cellular hypertrophy | – |
| M3: Flag-tagged rhPDE3A1 phosphorylation site mutant S428A (protein, UniProt Q14432 1-1141, looked up, variant S428A, Flag tag, Flag-tagged rhPDE3A1 phosphorylation site mutant S428A) cGMP-inhibited 3',5'-cyclic …: MAVPGDAARVRDKPVHSGVSQAPTAGRDCHHRADPASPRDSGCRGCWGDLVLQPLRSSRKLSSALCAGSLSFLLALLVRLVRGEVGCDLEQCKEAAAAEEEEAAPGAEGGVFPGPRGGAPGGGARLSPWLQPSALLFSLLCAFFWMGLYLLRAGVRLPLAVALLAACCGGEALVQIGLGVGEDHLLSLPAAGVVLSCLAAATWLVLRLRLGVLMIALTSAVRTVSLISLERFKVAWRPYLAYLAGVLGILLARYVEQILPQSAEAAPREHLGSQLIAGTKEDIPVFKRRRRSSSVVSAEMSGCSSKSHRRTSLPCIPREQLMGHSEWDHKRGPRGSQSSGTSITVDIAVMGEAHGLITDLLADPSLPPNVCTSLRAVSNLLSTQLTFQAIHKPRVNPVTSLSENYTCSDSEESSEKDKLAIPKRLRRALPPGLLRRVSSTWTTTTSATGLPTLEPAPVRRDRSTSIKLQEAPSSSPDSWNNPVMMTLTKSRSFTSSYAISAANHVKAKKQSRPGALAKISPLSSPCSSPLQGTPASSLVSKISAVQFPESADTTAKQSLGSHRALTYTQSAPDLSPQILTPPVICSSCGRPYSQGNPADEPLERSGVATRTPSRTDDTAQVTSDYETNNNSDSSDIVQNEDETECLREPLRKASACSTYAPETMMFLDKPILAPEPLVMDNLDSIMEQLNTWNFPIFDLVENIGRKCGRILSQVSYRLFEDMGLFEAFKIPIREFMNYFHALEIGYRDIPYHNRIHATDVLHAVWYLTTQPIPGLSTVINDHGSTSDSDSDSGFTHGHMGYVFSKTYNVTDDKYGCLSGNIPALELMALYVAAAMHDYDHPGRTNAFLVATSAPQAVLYNDRSVLENHHAAAAWNLFMSRPEYNFLINLDHVEFKHFRFLVIEAILATDLKKHFDFVAKFNGKVNDDVGIDWTNENDRLLVCQMCIKLADINGPAKCKELHLQWTDGIVNEFYEQGDEEASLGLPISPFMDRSAPQLANLQESFISHIVGPLCNSYDSAGLMPGKWVEDSDESGDTDDPEEEEEEAPAPNEEETCENNESPKKKTFKRRKIYCQITQHLLQNHKMWKKVIEEEQRLAGIENQSLDQTPQSHSSEQIQAIKEEEEEKGKPRGEEIPTQKPDQ | – | – | slightly decreased |
| M4: Flag-tagged rhPDE3A1 phosphorylation site mutant S438A (protein, UniProt Q14432 1-1141, looked up, variant S438A, Flag tag, Flag-tagged rhPDE3A1 phosphorylation site mutant S438A) cGMP-inhibited 3',5'-cyclic …: MAVPGDAARVRDKPVHSGVSQAPTAGRDCHHRADPASPRDSGCRGCWGDLVLQPLRSSRKLSSALCAGSLSFLLALLVRLVRGEVGCDLEQCKEAAAAEEEEAAPGAEGGVFPGPRGGAPGGGARLSPWLQPSALLFSLLCAFFWMGLYLLRAGVRLPLAVALLAACCGGEALVQIGLGVGEDHLLSLPAAGVVLSCLAAATWLVLRLRLGVLMIALTSAVRTVSLISLERFKVAWRPYLAYLAGVLGILLARYVEQILPQSAEAAPREHLGSQLIAGTKEDIPVFKRRRRSSSVVSAEMSGCSSKSHRRTSLPCIPREQLMGHSEWDHKRGPRGSQSSGTSITVDIAVMGEAHGLITDLLADPSLPPNVCTSLRAVSNLLSTQLTFQAIHKPRVNPVTSLSENYTCSDSEESSEKDKLAIPKRLRRSLPPGLLRRVASTWTTTTSATGLPTLEPAPVRRDRSTSIKLQEAPSSSPDSWNNPVMMTLTKSRSFTSSYAISAANHVKAKKQSRPGALAKISPLSSPCSSPLQGTPASSLVSKISAVQFPESADTTAKQSLGSHRALTYTQSAPDLSPQILTPPVICSSCGRPYSQGNPADEPLERSGVATRTPSRTDDTAQVTSDYETNNNSDSSDIVQNEDETECLREPLRKASACSTYAPETMMFLDKPILAPEPLVMDNLDSIMEQLNTWNFPIFDLVENIGRKCGRILSQVSYRLFEDMGLFEAFKIPIREFMNYFHALEIGYRDIPYHNRIHATDVLHAVWYLTTQPIPGLSTVINDHGSTSDSDSDSGFTHGHMGYVFSKTYNVTDDKYGCLSGNIPALELMALYVAAAMHDYDHPGRTNAFLVATSAPQAVLYNDRSVLENHHAAAAWNLFMSRPEYNFLINLDHVEFKHFRFLVIEAILATDLKKHFDFVAKFNGKVNDDVGIDWTNENDRLLVCQMCIKLADINGPAKCKELHLQWTDGIVNEFYEQGDEEASLGLPISPFMDRSAPQLANLQESFISHIVGPLCNSYDSAGLMPGKWVEDSDESGDTDDPEEEEEEAPAPNEEETCENNESPKKKTFKRRKIYCQITQHLLQNHKMWKKVIEEEQRLAGIENQSLDQTPQSHSSEQIQAIKEEEEEKGKPRGEEIPTQKPDQ | – | – | had no effect |
